Patent US12123009B2, “Methods and compositions for PPO herbicide tolerance in plants” (Monsanto Technology LLC, priority 2015, dated 2024)

Assays:
[1] = tested on: soybean (A3555), non-transgenic or expressing H_N10 (SEQ ID NO:4); test: R0 soybean sprayed with flumioxazin; format: in vivo; settings: 210 g/ha, V3, 8 days
Experimental: In soybean, excised embryos (A3555) were transformed with the transformation constructs 1 and 11 using A. tumefaciens and standard methods known in the art. […] Regenerated R0 transgenic plantlets were grown in the greenhouse. […] The herbicide was sprayed at the V3 developmental stage with three fully developed trifoliate leaves and injury ratings were assessed 8 days after treatment. The percentage of plants that were deemed highly tolerant (15% or less injury) was noted.

[2] = tested on: C=Cc1c2[nH]c(c1C)Cc1[nH]c(c(CCC(=O)O)c1C)Cc1[nH]c(c(C)c1CCC(=O)O)Cc1[nH]c(c(C)c1C=C)C2; test: purified protein, by the assay type; settings: other: apparent Km for protoporphyrinogen, pH 7.4, 37° C.
[3] = tested on: Waterhemp (Amaranthus tuberculata) protoporphyrinogen oxidase (PPO), wild type; test: PPO enzyme assay (plastid extract); format: biochemical; settings: apparent Km for protoporphyrinogen; pH 7.4, 30° C.
[4] = tested on: Soybean (Glycine max) protoporphyrinogen oxidase (PPO), wild type; test: PPO enzyme assay (plastid extract); format: biochemical; settings: apparent Km for protoporphyrinogen; pH 7.4, 30° C.
[5] = tested on: Maize (Zea mays) protoporphyrinogen oxidase (PPO), wild type; test: PPO enzyme assay (plastid extract); format: biochemical; settings: apparent Km for protoporphyrinogen; pH 7.4, 30° C.
[6] = tested on: H_N60 (SEQ ID NO: 3), microbial HemG protoporphyrinogen oxidase; test: PPO enzyme assay (bacterial extract); settings: apparent Km for protoporphyrinogen; pH 7.4, 37° C.
[7] = tested on: H_N110 (SEQ ID NO: 10), microbial HemG protoporphyrinogen oxidase; test: PPO enzyme assay (bacterial extract); settings: apparent Km for protoporphyrinogen; pH 7.4, 37° C.
transgenic maize plants = test: R0 transgenic maize 40 g/ha S-3100 spray test; format: in vivo; settings: for Average Injury / Highly Tolerant (number of plants with less than 10% injury): 40 grams/ha S-3100 at V5, 7 days after treatment, R0 plants; for injury rates when expressed in transgenic plants (crop tolerance to a PPO herbicide): R0 transgenic maize data
Text: H_N60 (SEQ ID NO:3). […] These five constructs had the same promoter plus leader plus intron combination, with two different targeting peptide (TP) sequences, and the same 3′UTR sequence. Leaf samples were taken from the R0 plants and analyzed by PCR to determine the transgene copy number. Single copy plants for up to 12 unique events per construct were transplanted to pots, selfed and outcrossed to generate R1 and F1 seed, respectively, for future testing. Multi-copy plants and extra single copy plants were sprayed with 40 grams/ha 5-3100 at approximately the V5 growth stage and injury ratings were taken 7 days after treatment. The average percent (%) injury for all plants expressing each PPO enzyme and the number of plants that were deemed highly tolerant (less than 10% injury) was noted, where each plant is a unique single or multi-copy transformant.

soybean plantlets = test: High-throughput soybean screening for herbicide tolerance (plantlets); format: in vivo, soybean (A3555); parameters: key: 0 for poor tolerance, high damage, low green coloration; 1 for some tolerance, average damage, moderate green coloration; 2 for good tolerance, low damage, high green coloration; settings: S-3100 spray five weeks post-transformation, scored day four
Text: A high-throughput plant transformation and screening method was used to evaluate large numbers of constructs in transgenic plants for herbicide tolerance in early transformation plantlet tissue. This allowed for faster and higher volume screening of construct configurations and PPO enzymes.
This permitted the side-by-side comparison of seven different HemG PPO enzymes with thirty-seven different targeting peptides using the same promoter and 3′UTR elements for gene expression. These plant transformation constructs were used to transform soybean excised embryos (germplasm A3555) using A. tumefaciens and standard methods known in the art. Four hundred explants were inoculated for each construct resulting in twelve containers per construct. A sterile PPO herbicide solution was used for herbicide tolerance testing. The herbicide solution consisted of 0.3 g of S-3100 in crop oil concentrate (5.0 mL) and 495 mL of deionized water. This was filtered through a 0.45 micron Nalgene® Rapid-Flow™ Tissue Culture Filter Unit and Surfactant-Free Cellulose Acetate membrane filter unit (VWR, Radnor, PA, USA). The resulting sterile solution was shaken before application.
At five weeks post-transformation, four of the twelve plant containers per construct were sprayed with two passes of the sterile PPO herbicide solution. The treated plantlets were then enclosed in the container and received at least 15 hours of light exposure post spray each day for four days. At the end of day four post application of S-3100, the treated plantlets were photographed and scored on a visual scale of green coloration (green coloration was representative of healthy photosynthetic plant tissue as compared to photo-bleached tissue) versus damage. The scoring values were 0 for poor tolerance, high damage, low green coloration; 1 for some tolerance, average damage, moderate green coloration; and 2 for good tolerance, low damage, high green coloration. The scoring for each construct is presented in Table 9, where n.d. indicates the analysis was not conducted.

R0 soybean plants = test: R0 transgenic soybean herbicide tolerance at eleven weeks; format: in vivo; settings: R0 plants sprayed with S-3100 at eleven weeks, rated seven days after treatment
Experimental: The plantlets in the non-sprayed containers corresponding to constructs having a score of 2 were transplanted at approximately 7 weeks post transformation and grown as R0 plants using standard methods known in the art. Plantlets corresponding to non-tolerant scores of 0 and 1 were also grown to serve as negative controls. The R0 plants were grown in a greenhouse under long-day nursery conditions (18 hr light at 80° F. then 6 hr dark at 74° F.) for approximately four weeks. At eleven weeks, the R0 plants were sprayed with two passes of the same herbicide solution (0.3 g of 5-3100) described above. Herbicide injury ratings were collected seven days after treatment.
The results of the herbicide tolerance application at eleven weeks to the R0 plants confirmed the low percent injury rating scores observed in the high-throughput screen at five weeks. Any injury rating of 30% or above was equivalent to non-transgenic soybean injury ratings. A few of the constructs stood out as providing very good tolerance to the herbicide application. […] Data are provided in Table 10, where n.d. indicates the analysis was not conducted.

[8] = H_N10 (SEQ ID NO:4), construct 11

For `C#CCN1C(=O)COc2cc(F)c(N3C(=O)C4=C(CCCC4)C3=O)cc21` [flumioxazin], the average injury rating [1, 8] was 22%, the “highly tolerant plants (15% or less injury)” value [1, 8] was 9% and the average injury rating ([1]; non-transgenic) was 30%. For the same molecule, the “highly tolerant plants (15% or less injury)” value ([1]; non-transgenic) was “no highly tolerant plants”.

Molecule “H_N10 (SEQ ID NO: 4), E. coli wild-type HemG protoporphyrinogen oxidase (Escherichia coli CFT073)” has a Km [2] of 0.7 µM.

Work on “H_N30 (SEQ ID NO: 5), microbial HemG protoporphyrinogen oxidase (Winslowiella toletana)” yielded a Km [2] of 1.0 µM.

“H_N50 (SEQ ID NO: 7), microbial HemG protoporphyrinogen oxidase (Shimwellia blattae DSM 4481 = NBRC 105725)” showed a Km [2] of 1.0 µM.

For `C=Cc1c2[nH]c(c1C)Cc1[nH]c(c(CCC(=O)O)c1C)Cc1[nH]c(c(C)c1CCC(=O)O)Cc1[nH]c(c(C)c1C=C)C2` [protoporphyrinogen, protoporphyrinogen IX], the Km [3] was 0.7 µM, the Km [4] was 1.8 µM and the Km [5] was 2 µM. It also gave a Km [6] of 1.1 µM and a Km [7] of 0.3 µM.

Work on “H_N20 (SEQ ID NO: 2), microbial HemG protoporphyrinogen oxidase (Pantoea ananatis LMG 5342)” yielded a Km [2] of 0.8 µM.

B1: H_N40: microbial HemG protoporphyrinogen oxidase, SEQ ID NO:6 (SEQ ID NO:15 lacking start methionine) (protein, listed as Pectobacterium carotovorum)
chain: MKALIVFSSRDGQTRAIASYIANTLKGTLECDVVNVLNANDIDLSQYDRVAIGASIRYGRFHPAVNQFIRKHLTSLQQLPSAFFSVNLTARKPEKRTIQTNAYTRKFLLNSPWQPDLCCVFAGALRYPRYRWFDRVMIQLIMRITGGETDSTKEIEYTDWQQVARFAQDFAQLAAKNPA
In the case of B1, the “Average Injury” value (transgenic maize plants) is reported as 47.0%, the “Highly Tolerant (number of plants with less than 10% injury)” value (transgenic maize plants) is reported as 53 and the “injury rates when expressed in transgenic plants (crop tolerance to a PPO herbicide)” value (from here on “injury rates when expressed”) (transgenic maize plants) is reported as “reduced injury rates”. For the same molecule, the coloration score (soybean plantlets; TP9) was 0, the coloration score (soybean plantlets; TP11) was 1 and the coloration score (soybean plantlets; TP12) was 1. The coloration score (soybean plantlets; TP13) was 1, the coloration score (soybean plantlets; TP14) was 2 and the coloration score (soybean plantlets; TP15) was 2. For the same molecule, the coloration score (soybean plantlets; TP17) was 1, the coloration score (soybean plantlets; TP18) was 1 and the coloration score (soybean plantlets; TP19) was 1. The coloration score (soybean plantlets; TP21) was 2, the coloration score (soybean plantlets; TP23) was 1 and the coloration score (soybean plantlets; TP24) was 0. The coloration score (soybean plantlets; TP25) was 2, the coloration score (soybean plantlets; TP26) was 1 and the coloration score (soybean plantlets; TP27) was 1. For the same molecule, the coloration score (soybean plantlets; TP28) was 1, the coloration score (soybean plantlets; TP29) was 1 and the coloration score (soybean plantlets; TP30) was 1. For the same molecule, the coloration score (soybean plantlets; TP31) was 1, the coloration score (soybean plantlets; TP32) was 1 and the coloration score (soybean plantlets; TP33) was 0. The percent injury score (R0 soybean plants; TP1) was 5%, the percent injury score (R0 soybean plants; TP13) was 15% and the percent injury score (R0 soybean plants; TP14) was 35%. The percent injury score (R0 soybean plants; TP15) was 30%, the percent injury score (R0 soybean plants; TP21) was 35% and the percent injury score (R0 soybean plants; TP25) was 15%.

B2: H_N60: microbial HemG protoporphyrinogen oxidase, SEQ ID NO:3 (protein, listed as Pantoea stewardii)
chain: MKALILYSTRDGQTRKIASSIADVIRQQQQCDVLNIKDASLPDWAQYDRVLIGASIRYGHFQPVVDKFVKQHLHELQQRTSGFFSVNLTARKPEKRSPETNAYTQKFLAHSPWQPDCCAVFAGALYYPRYRWFDRVMIQLIMRMTGGETDSTKEVEYTDWQQVSTFANDFAQLPGKS
B2 was tested, and the “Average Injury” value (transgenic maize plants) was 55.8%, the “Highly Tolerant (number of plants with less than 10% injury)” value (transgenic maize plants) was 19 and the “injury rates when expressed” value (transgenic maize plants) was “reduced injury rates”.

B3: H_N110: microbial HemG protoporphyrinogen oxidase, SEQ ID NO:10 (protein, listed as Enterobacter mori)
chain: MKILILFSTRDGQTREIAASLASELKEQAFDVDVVNLHRAENIAWEEYDGVVIGASIRYGHFHSTLNSFVKKHQQALKKLPGAFYSVNLVARKPEKRTPQTNSYTRKFLLDSPWQPDLSAVFAGALRYPRYNWYDRIMIRLIMKITGGETDTRKEVVYTDWQQVTHFAHEIVQLVRK
B3 was tested, and the “Average Injury” value (transgenic maize plants) was 43.0%, the “Highly Tolerant (number of plants with less than 10% injury)” value (transgenic maize plants) was “did not produce any highly tolerant plants” and the “injury rates when expressed” value (transgenic maize plants) was “reduced injury rates”.
